# Data reported in the RNAGym collection of RNA variant scans (doi:10.1021/acssynbio.7b00057).
# B1: Pistol ribozyme (parent)
# chain: GGGUCGUUGUUCCAUAAUCGCGUGGAUAUGGCACGCAAGUUUCUACCGGGCACCGUAAAUGUCCGACUGGAGCCGUUCGGGCGGCUAUAAACAGACCUCAGGCCCGAAGCGUGGCGGCACCUGCCGCCGGUGGUAAAAAAGAUCGGAAGAGCACACGUCU
# Variants of: B1
# Experiment: aptazyme ON/OFF ratio, guanine; higher = stronger switching; co-transcriptional cleavage with and without guanine
row,Variant,aptazyme ON/OFF ratio
1,GGGUCGCAAUCUAAUAAUCGCGUGGAUAUGGCACGCAAGUUUCUACCGGGCACCGUAAAUGUCCGACUGGAGCCGUUCGGGCGGCUAUAAACAGACCUCAGGCCCGAAGCGUGGCGGCACCUGCCGCCGGUGGUAAAAAAGAUCGGAAGAGCACACGUCU [U7C U8A G9A U11C C12U C13A],1.17
2,GGGUCGCAAUCUGAUAAUCGCGUGGAUAUGGCACGCAAGUUUCUACCGGGCACCGUAAAUGUCCGACUGGAGCCGUUCGGGCGGCUAUAAACAGACCUCAGGCCCGAAGCGUGGCGGCACCUGCCGCCGGUGGUAAAAAAGAUCGGAAGAGCACACGUCU [U7C U8A G9A U11C C12U C13G],1.09
3,GGGUCGCAAUCUUAUAAUCGCGUGGAUAUGGCACGCAAGUUUCUACCGGGCACCGUAAAUGUCCGACUGGAGCCGUUCGGGCGGCUAUAAACAGACCUCAGGCCCGAAGCGUGGCGGCACCUGCCGCCGGUGGUAAAAAAGAUCGGAAGAGCACACGUCU [U7C U8A G9A U11C C12U C13U],1.2
4,GGGUCGCAAUGGUAUAAUCGCGUGGAUAUGGCACGCAAGUUUCUACCGGGCACCGUAAAUGUCCGACUGGAGCCGUUCGGGCGGCUAUAAACAGACCUCAGGCCCGAAGCGUGGCGGCACCUGCCGCCGGUGGUAAAAAAGAUCGGAAGAGCACACGUCU [U7C U8A G9A U11G C12G C13U],1.13
5,GGGUCGCAAUGGAAUAAUCGCGUGGAUAUGGCACGCAAGUUUCUACCGGGCACCGUAAAUGUCCGACUGGAGCCGUUCGGGCGGCUAUAAACAGACCUCAGGCCCGAAGCGUGGCGGCACCUGCCGCCGGUGGUAAAAAAGAUCGGAAGAGCACACGUCU [U7C U8A G9A U11G C12G C13A],1.12
6,GGGUCGCAAUGGGAUAAUCGCGUGGAUAUGGCACGCAAGUUUCUACCGGGCACCGUAAAUGUCCGACUGGAGCCGUUCGGGCGGCUAUAAACAGACCUCAGGCCCGAAGCGUGGCGGCACCUGCCGCCGGUGGUAAAAAAGAUCGGAAGAGCACACGUCU [U7C U8A G9A U11G C12G C13G],1.12
7,GGGUCGCAAUGCGAUAAUCGCGUGGAUAUGGCACGCAAGUUUCUACCGGGCACCGUAAAUGUCCGACUGGAGCCGUUCGGGCGGCUAUAAACAGACCUCAGGCCCGAAGCGUGGCGGCACCUGCCGCCGGUGGUAAAAAAGAUCGGAAGAGCACACGUCU [U7C U8A G9A U11G C13G],1.04
8,GGGUCGCAAUGCUAUAAUCGCGUGGAUAUGGCACGCAAGUUUCUACCGGGCACCGUAAAUGUCCGACUGGAGCCGUUCGGGCGGCUAUAAACAGACCUCAGGCCCGAAGCGUGGCGGCACCUGCCGCCGGUGGUAAAAAAGAUCGGAAGAGCACACGUCU [U7C U8A G9A U11G C13U],1.25
9,GGGUCGCAAUGCAAUAAUCGCGUGGAUAUGGCACGCAAGUUUCUACCGGGCACCGUAAAUGUCCGACUGGAGCCGUUCGGGCGGCUAUAAACAGACCUCAGGCCCGAAGCGUGGCGGCACCUGCCGCCGGUGGUAAAAAAGAUCGGAAGAGCACACGUCU [U7C U8A G9A U11G C13A],1.18
10,GGGUCGCAAUCGGAUAAUCGCGUGGAUAUGGCACGCAAGUUUCUACCGGGCACCGUAAAUGUCCGACUGGAGCCGUUCGGGCGGCUAUAAACAGACCUCAGGCCCGAAGCGUGGCGGCACCUGCCGCCGGUGGUAAAAAAGAUCGGAAGAGCACACGUCU [U7C U8A G9A U11C C12G C13G],1.12
11,GGGUCGCAAUCGAAUAAUCGCGUGGAUAUGGCACGCAAGUUUCUACCGGGCACCGUAAAUGUCCGACUGGAGCCGUUCGGGCGGCUAUAAACAGACCUCAGGCCCGAAGCGUGGCGGCACCUGCCGCCGGUGGUAAAAAAGAUCGGAAGAGCACACGUCU [U7C U8A G9A U11C C12G C13A],1.16
12,GGGUCGCAAUCGUAUAAUCGCGUGGAUAUGGCACGCAAGUUUCUACCGGGCACCGUAAAUGUCCGACUGGAGCCGUUCGGGCGGCUAUAAACAGACCUCAGGCCCGAAGCGUGGCGGCACCUGCCGCCGGUGGUAAAAAAGAUCGGAAGAGCACACGUCU [U7C U8A G9A U11C C12G C13U],1.18
13,GGGUCGCAAUCCAAUAAUCGCGUGGAUAUGGCACGCAAGUUUCUACCGGGCACCGUAAAUGUCCGACUGGAGCCGUUCGGGCGGCUAUAAACAGACCUCAGGCCCGAAGCGUGGCGGCACCUGCCGCCGGUGGUAAAAAAGAUCGGAAGAGCACACGUCU [U7C U8A G9A U11C C13A],1.04
14,GGGUCGCAAUCCGAUAAUCGCGUGGAUAUGGCACGCAAGUUUCUACCGGGCACCGUAAAUGUCCGACUGGAGCCGUUCGGGCGGCUAUAAACAGACCUCAGGCCCGAAGCGUGGCGGCACCUGCCGCCGGUGGUAAAAAAGAUCGGAAGAGCACACGUCU [U7C U8A G9A U11C C13G],1.02
15,GGGUCGCAAUCCUAUAAUCGCGUGGAUAUGGCACGCAAGUUUCUACCGGGCACCGUAAAUGUCCGACUGGAGCCGUUCGGGCGGCUAUAAACAGACCUCAGGCCCGAAGCGUGGCGGCACCUGCCGCCGGUGGUAAAAAAGAUCGGAAGAGCACACGUCU [U7C U8A G9A U11C C13U],1.05
16,GGGUCGCAAUCUCAUAAUCGCGUGGAUAUGGCACGCAAGUUUCUACCGGGCACCGUAAAUGUCCGACUGGAGCCGUUCGGGCGGCUAUAAACAGACCUCAGGCCCGAAGCGUGGCGGCACCUGCCGCCGGUGGUAAAAAAGAUCGGAAGAGCACACGUCU [U7C U8A G9A U11C C12U],1.13
17,GGGUCGCAAUGCCAUAAUCGCGUGGAUAUGGCACGCAAGUUUCUACCGGGCACCGUAAAUGUCCGACUGGAGCCGUUCGGGCGGCUAUAAACAGACCUCAGGCCCGAAGCGUGGCGGCACCUGCCGCCGGUGGUAAAAAAGAUCGGAAGAGCACACGUCU [U7C U8A G9A U11G],1.09
18,GGGUCGCACUUCCAUAAUCGCGUGGAUAUGGCACGCAAGUUUCUACCGGGCACCGUAAAUGUCCGACUGGAGCCGUUCGGGCGGCUAUAAACAGACCUCAGGCCCGAAGCGUGGCGGCACCUGCCGCCGGUGGUAAAAAAGAUCGGAAGAGCACACGUCU [U7C U8A G9C],1.04
